Data taken from patent publication US20260234260A1 (EUCURE BEIJING BIOPHARMA, published 2026).
Like-named read-outs stand apart in the source and are kept apart here. Each block holds one binder with its values, some of them ahead of it.

Experiments:
[1] = molecular target: T1, human CD40 expressed on Jurkat-Luc-hCD40 reporter cells (human, UniProt P25942 21-277); assay: cell-based or functional assay
[2] = molecular target: T1, human CD40 expressed on …; assay: cell-based or functional assay; remark: listed apart in the source
[3] = molecular target: T2, human PD-1/PDCD1 protein, His Tag (ACRO Biosystems Cat #PD1-H5221) (human, UniProt Q15116 25-167); assay: SPR (Biacore), antibody captured, His-tagged hPD-1 in solution
T2 construct: Bought protein; also called hPD-1; human PD-1 protein; not shown: His tag
T2 sequence (Q15116 25-167 limits assumed): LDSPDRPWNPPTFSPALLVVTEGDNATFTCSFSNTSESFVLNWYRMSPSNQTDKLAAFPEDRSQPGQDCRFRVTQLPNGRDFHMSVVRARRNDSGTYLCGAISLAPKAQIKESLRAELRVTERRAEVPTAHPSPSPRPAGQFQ

[4] = molecular target: T3, neonatal Fc receptor (FcRn); assay: SPR (Biacore), antibody captured, FcRn as analyte
T3 construct: Analyte in Biacore
Procedure: The binding affinity to neonatal Fc receptor (FcRn) was determined by Biacore® systems.

[5] = molecular target: human PD-1 expressed on cells (Jurkat-Luc-hPD-1, CHO-K1-hPD1, Jurkat-hPD1) (human, UniProt Q15116 25-288); assay: cell-based or functional assay
human PD-1 expressed on cells (Jurkat-Luc-hPD-1, CHO-K1-hPD1, Jurkat-hPD1), sequence (Q15116 25-288 limits assumed): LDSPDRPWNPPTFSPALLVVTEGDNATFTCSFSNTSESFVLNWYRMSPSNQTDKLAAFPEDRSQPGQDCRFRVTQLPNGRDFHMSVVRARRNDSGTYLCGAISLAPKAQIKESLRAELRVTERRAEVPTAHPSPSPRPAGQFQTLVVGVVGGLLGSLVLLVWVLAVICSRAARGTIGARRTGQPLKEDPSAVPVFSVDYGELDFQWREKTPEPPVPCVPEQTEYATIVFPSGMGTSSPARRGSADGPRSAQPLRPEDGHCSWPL

[6] = molecular target: T1, human CD40 expressed on …; assay: cell-based or functional assay; remark: listed apart in the source
[7] = molecular target: T1, human CD40 expressed on …; assay: cell-based or functional assay; remark: listed apart in the source
[8] = molecular target: T4, human CD40/TNFRSF5 Protein, His Tag (ACRO Biosystems Cat #CD0-H5228) (human, UniProt P25942 21-193); assay: SPR (Biacore), antibody captured, His-tagged hCD40 in solution
T4 construct: Bought protein; also called hCD40; human CD40 protein; not shown: His tag
T4 sequence (P25942 21-193 limits assumed): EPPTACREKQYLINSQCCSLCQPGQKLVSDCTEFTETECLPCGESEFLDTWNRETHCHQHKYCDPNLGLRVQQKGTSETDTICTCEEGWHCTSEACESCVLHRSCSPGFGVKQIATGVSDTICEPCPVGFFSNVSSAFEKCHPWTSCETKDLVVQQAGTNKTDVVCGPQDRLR

[9] = molecular target: T1, human CD40 expressed on …; assay: cell-based or functional assay; remark: listed apart in the source
[10] = molecular target: T1, human CD40 expressed on …; assay: cell-based or functional assay; remark: listed apart in the source
[11] = molecular target: T1, human CD40 expressed on …; assay: cell-based or functional assay; remark: listed apart in the source
[12] = molecular target: T4, human CD40/TNFRSF5 Protein, His Tag …; assay: SPR (Biacore), hCD40
Procedure: The binding affinity to human […] (hCD40) was determined by Biacore systems.

T1 sequence (P25942 21-277 limits assumed): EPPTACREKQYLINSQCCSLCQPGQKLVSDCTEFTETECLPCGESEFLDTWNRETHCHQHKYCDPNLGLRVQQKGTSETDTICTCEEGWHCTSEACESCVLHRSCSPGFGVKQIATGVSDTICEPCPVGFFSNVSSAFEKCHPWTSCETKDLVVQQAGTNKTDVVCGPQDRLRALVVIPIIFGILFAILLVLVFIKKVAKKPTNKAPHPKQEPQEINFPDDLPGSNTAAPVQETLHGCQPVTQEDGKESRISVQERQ

Kd [3]: 8.56 nM | koff [3]: 0.00125 s⁻¹ | kon [3]: 146000 M⁻¹ s⁻¹ | Kd [4]: 2210 nM | EC50 Value (ug/ml), luminescence of Jurkat-Luc-hPD-1 effector cells co-cultured with CHO-aAPC-hPD-L1 cells [5]: 5.61 µg/mL
B4: anti-PD-1 monoclonal antibody 1A7-H2K3-IgG4 (antibody)
VH: EVQLVESGGGLVQPGGSLRLSCAASGFTFSSYSMSWVRQAPGKRLEWVAHISSGGSSTYYPDTVKGRFTISRDNSKNTLYLQMNSLRAEDTAMYYCTRQFYYGSSFWYFDVWGAGTTVTVSS
light: DNVLTQSPATLSVSPGERATLSCKASQSVDFDGDSYMNWYQQKPGQPPRLLIYAASNLESGIPARFSGSGSGTDFTLTISSVEPEDFATYYCQQSNEDPPTFGGGTKVEIKRTVAAPSVFIFPPSDEQLKSGTASVVCLLNNFYPREAKVQWKVDNALQSGNSQESVTEQDSKDSTYSLSSTLTLSKADYEKHKVYACEVTHQGLSSPVTKSFNRGEC
notes: IgG4; also called PD-1 (1A7-H2K3-IgG4); PD1-1A7-H2K3-IgG4

Kd [3]: 8.28 nM | koff [3]: 0.00122 s⁻¹ | kon [3]: 148000 M⁻¹ s⁻¹ | EC50 Value (ug/ml), luminescence of Jurkat-Luc-hCD40 reporter cells in the presence of CHO-K1-hPD1 basal cells [6]: 0.0108 µg/mL | EC50 Value (ug/ml), luminescence of Jurkat-Luc-hCD40 reporter cells in the presence of Jurkat-hPD1 basal cells [7]: 0.0079 µg/mL | Kd [8]: 1.3 nM | koff [8]: 0.00034 s⁻¹ | kon [8]: 261000 M⁻¹ s⁻¹ | EC50 Value (ug/ml), luminescence of Jurkat-Luc-hPD-1 effector cells co-cultured with CHO-aAPC-hPD-L1 cells [5]: 4.36 µg/mL
B5: ScFV-HC-IgG4 (bispecific antibody)
heavy: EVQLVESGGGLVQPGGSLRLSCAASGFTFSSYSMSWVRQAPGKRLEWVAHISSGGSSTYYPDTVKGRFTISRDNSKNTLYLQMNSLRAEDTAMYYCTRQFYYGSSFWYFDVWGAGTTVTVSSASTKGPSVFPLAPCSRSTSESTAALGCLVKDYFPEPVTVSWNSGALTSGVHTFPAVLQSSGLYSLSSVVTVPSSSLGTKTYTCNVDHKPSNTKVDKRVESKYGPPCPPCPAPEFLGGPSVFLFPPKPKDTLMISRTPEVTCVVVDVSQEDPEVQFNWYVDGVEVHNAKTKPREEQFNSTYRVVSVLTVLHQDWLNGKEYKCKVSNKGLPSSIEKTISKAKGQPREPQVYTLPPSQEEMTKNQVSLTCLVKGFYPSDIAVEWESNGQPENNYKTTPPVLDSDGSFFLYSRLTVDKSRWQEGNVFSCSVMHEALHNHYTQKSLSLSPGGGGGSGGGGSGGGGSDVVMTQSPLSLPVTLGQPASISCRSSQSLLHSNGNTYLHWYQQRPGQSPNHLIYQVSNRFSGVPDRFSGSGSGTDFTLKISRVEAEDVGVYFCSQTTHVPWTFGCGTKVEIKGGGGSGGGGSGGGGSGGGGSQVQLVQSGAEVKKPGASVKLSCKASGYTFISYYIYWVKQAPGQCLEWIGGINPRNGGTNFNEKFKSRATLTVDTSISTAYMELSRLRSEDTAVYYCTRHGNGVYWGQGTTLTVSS
light: DNVLTQSPATLSVSPGERATLSCKASQSVDFDGDSYMNWYQQKPGQPPRLLIYAASNLESGIPARFSGSGSGTDFTLTISSVEPEDFATYYCQQSNEDPPTFGGGTKVEIKRTVAAPSVFIFPPSDEQLKSGTASVVCLLNNFYPREAKVQWKVDNALQSGNSQESVTEQDSKDSTYSLSSTLTLSKADYEKHKVYACEVTHQGLSSPVTKSFNRGEC
notes: Anti-CD40 scFv (6A7-H4K2) joined to the C-terminus of each heavy chain of the anti-PD-1 antibody 1A7-H2K3, IgG4

EC50 Value (ug/ml), luminescence of Jurkat-Luc-hCD40 reporter cells in the presence of Jurkat-hPD1 basal cells [7]: 0.0065 µg/mL
B8: ScFV-HC-IgG1-LALA (bispecific antibody)
heavy: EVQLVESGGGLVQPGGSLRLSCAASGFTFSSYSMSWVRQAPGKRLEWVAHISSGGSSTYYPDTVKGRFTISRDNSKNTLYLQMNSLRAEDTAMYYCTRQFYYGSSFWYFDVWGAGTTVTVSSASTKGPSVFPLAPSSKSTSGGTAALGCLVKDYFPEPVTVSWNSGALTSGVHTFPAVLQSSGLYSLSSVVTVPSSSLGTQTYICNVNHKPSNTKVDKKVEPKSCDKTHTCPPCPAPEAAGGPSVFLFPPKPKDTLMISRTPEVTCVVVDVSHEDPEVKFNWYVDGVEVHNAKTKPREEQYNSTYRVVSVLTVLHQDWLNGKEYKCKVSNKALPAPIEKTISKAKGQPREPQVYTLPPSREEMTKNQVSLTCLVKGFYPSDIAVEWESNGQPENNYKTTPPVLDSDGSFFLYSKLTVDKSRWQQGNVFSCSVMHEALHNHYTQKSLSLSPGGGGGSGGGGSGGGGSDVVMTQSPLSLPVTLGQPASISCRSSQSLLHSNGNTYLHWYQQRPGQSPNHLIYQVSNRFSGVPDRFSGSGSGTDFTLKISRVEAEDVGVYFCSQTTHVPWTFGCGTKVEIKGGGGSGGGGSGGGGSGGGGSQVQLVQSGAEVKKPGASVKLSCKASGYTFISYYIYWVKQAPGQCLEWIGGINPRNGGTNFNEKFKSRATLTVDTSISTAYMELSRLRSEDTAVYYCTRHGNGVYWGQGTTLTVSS
light: DNVLTQSPATLSVSPGERATLSCKASQSVDFDGDSYMNWYQQKPGQPPRLLIYAASNLESGIPARFSGSGSGTDFTLTISSVEPEDFATYYCQQSNEDPPTFGGGTKVEIKRTVAAPSVFIFPPSDEQLKSGTASVVCLLNNFYPREAKVQWKVDNALQSGNSQESVTEQDSKDSTYSLSSTLTLSKADYEKHKVYACEVTHQGLSSPVTKSFNRGEC

Continued, binder first:

B1: Pembrolizumab-Seli-FVHC-IgG4 (bispecific antibody)
heavy: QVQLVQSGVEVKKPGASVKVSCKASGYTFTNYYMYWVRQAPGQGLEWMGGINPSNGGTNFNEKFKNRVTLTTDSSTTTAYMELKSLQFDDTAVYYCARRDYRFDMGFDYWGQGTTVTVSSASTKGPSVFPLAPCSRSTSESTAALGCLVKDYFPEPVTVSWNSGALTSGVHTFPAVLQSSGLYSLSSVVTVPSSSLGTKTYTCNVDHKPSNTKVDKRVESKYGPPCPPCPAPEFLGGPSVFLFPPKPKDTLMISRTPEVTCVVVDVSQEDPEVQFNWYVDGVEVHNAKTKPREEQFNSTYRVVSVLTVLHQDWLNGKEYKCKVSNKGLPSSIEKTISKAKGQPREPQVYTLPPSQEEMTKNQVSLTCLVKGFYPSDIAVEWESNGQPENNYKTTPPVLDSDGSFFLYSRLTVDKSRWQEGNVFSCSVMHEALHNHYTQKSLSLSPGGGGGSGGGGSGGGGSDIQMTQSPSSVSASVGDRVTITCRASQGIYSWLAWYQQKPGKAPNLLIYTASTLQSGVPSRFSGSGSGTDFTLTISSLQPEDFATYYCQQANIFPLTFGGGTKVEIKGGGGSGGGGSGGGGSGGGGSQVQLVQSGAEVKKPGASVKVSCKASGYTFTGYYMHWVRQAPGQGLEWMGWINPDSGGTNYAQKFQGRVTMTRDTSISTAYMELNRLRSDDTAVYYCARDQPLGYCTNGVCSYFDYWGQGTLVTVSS
light: EIVLTQSPATLSLSPGERATLSCRASKGVSTSGYSYLHWYQQKPGQAPRLLIYLASYLESGVPARFSGSGSGTDFTLTISSLEPEDFAVYYCQHSRDLPLTFGGGTKVEIKRTVAAPSVFIFPPSDEQLKSGTASVVCLLNNFYPREAKVQWKVDNALQSGNSQESVTEQDSKDSTYSLSSTLTLSKADYEKHKVYACEVTHQGLSSPVTKSFNRGEC
EC50 (read off the curve) [1]: ~0.1 µg/mL

B2: Pembrolizumab-APX005M-FVHC-IgG4 (bispecific antibody)
heavy: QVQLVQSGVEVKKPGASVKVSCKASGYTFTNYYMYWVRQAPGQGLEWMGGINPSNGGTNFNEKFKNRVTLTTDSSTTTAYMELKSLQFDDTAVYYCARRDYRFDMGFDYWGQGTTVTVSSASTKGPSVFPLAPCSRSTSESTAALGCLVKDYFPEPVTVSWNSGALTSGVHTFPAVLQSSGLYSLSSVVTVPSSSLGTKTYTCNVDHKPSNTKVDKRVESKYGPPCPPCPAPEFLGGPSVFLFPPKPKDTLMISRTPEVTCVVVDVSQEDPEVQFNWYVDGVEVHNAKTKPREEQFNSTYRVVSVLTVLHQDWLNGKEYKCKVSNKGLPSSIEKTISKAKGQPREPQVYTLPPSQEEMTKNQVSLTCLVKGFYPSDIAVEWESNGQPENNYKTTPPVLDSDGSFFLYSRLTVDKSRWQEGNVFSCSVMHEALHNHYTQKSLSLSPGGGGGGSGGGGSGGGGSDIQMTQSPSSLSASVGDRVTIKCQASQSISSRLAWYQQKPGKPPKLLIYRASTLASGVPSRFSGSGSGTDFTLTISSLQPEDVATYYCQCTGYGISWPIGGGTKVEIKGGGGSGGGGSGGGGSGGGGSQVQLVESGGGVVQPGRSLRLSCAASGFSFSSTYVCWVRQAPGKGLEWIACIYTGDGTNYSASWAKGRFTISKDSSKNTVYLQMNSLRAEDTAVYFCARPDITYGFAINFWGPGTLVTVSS
light: EIVLTQSPATLSLSPGERATLSCRASKGVSTSGYSYLHWYQQKPGQAPRLLIYLASYLESGVPARFSGSGSGTDFTLTISSLEPEDFAVYYCQHSRDLPLTFGGGTKVEIKRTVAAPSVFIFPPSDEQLKSGTASVVCLLNNFYPREAKVQWKVDNALQSGNSQESVTEQDSKDSTYSLSSTLTLSKADYEKHKVYACEVTHQGLSSPVTKSFNRGEC
EC50 (read off the curve) [2]: ~0.2 µg/mL

B3: Pembrolizumab-6A7-HC-IgG1-LALA (bispecific antibody)
heavy: not shown
light: EIVLTQSPATLSLSPGERATLSCRASKGVSTSGYSYLHWYQQKPGQAPRLLIYLASYLESGVPARFSGSGSGTDFTLTISSLEPEDFAVYYCQHSRDLPLTFGGGTKVEIKRTVAAPSVFIFPPSDEQLKSGTASVVCLLNNFYPREAKVQWKVDNALQSGNSQESVTEQDSKDSTYSLSSTLTLSKADYEKHKVYACEVTHQGLSSPVTKSFNRGEC
EC50 (read off the curve) [2]: ~0.07 µg/mL

B6: Fab-ScFV-IgG4 (bispecific antibody)
heavy: EVQLVESGGGLVQPGGSLRLSCAASGFTFSSYSMSWVRQAPGKRLEWVAHISSGGSSTYYPDTVKGRFTISRDNSKNTLYLQMNSLRAEDTAMYYCTRQFYYGSSFWYFDVWGAGTTVTVSSASTKGPSVFPLAPCSRSTSESTAALGCLVKDYFPEPVTVSWNSGALTSGVHTFPAVLQSSGLYSLSSVVTVPSSSLGTKTYTCNVDHKPSNTKVDKRVESKYGPPCPPCPAPEFLGGPSVFLFPPKPKDTLMISRTPEVTCVVVDVSQEDPEVQFNWYVDGVEVHNAKTKPREEQFNSTYRVVSVLTVLHQDWLNGKEYKCKVSNKGLPSSIEKTISKAKGQPREPQVYTLPPCQEEMTKNQVSLWCLVKGFYPSDIAVEWESNGQPENNYKTTPPVLDSDGSFFLYSRLTVDKSRWQEGNVFSCSVMHEALHNHYTQKSLSLSLGK
light: DNVLTQSPATLSVSPGERATLSCKASQSVDFDGDSYMNWYQQKPGQPPRLLIYAASNLESGIPARFSGSGSGTDFTLTISSVEPEDFATYYCQQSNEDPPTFGGGTKVEIKRTVAAPSVFIFPPSDEQLKSGTASVVCLLNNFYPREAKVQWKVDNALQSGNSQESVTEQDSKDSTYSLSSTLTLSKADYEKHKVYACEVTHQGLSSPVTKSFNRGEC
chain: QVQLVQSGAEVKKPGASVKLSCKASGYTFISYYIYWVKQAPGQCLEWIGGINPRNGGTNFNEKFKSRATLTVDTSISTAYMELSRLRSEDTAVYYCTRHGNGVYWGQGTTLTVSSASTGGGGSGGGGSGGGGSGGGGSDVVMTQSPLSLPVTLGQPASISCRSSQSLLHSNGNTYLHWYQQRPGQSPNHLIYQVSNRFSGVPDRFSGSGSGTDFTLKISRVEAEDVGVYFCSQTTHVPWTFGCGTKVEIKDKRVESKYGPPCPPCPAPEFLGGPSVFLFPPKPKDTLMISRTPEVTCVVVDVSQEDPEVQFNWYVDGVEVHNAKTKPREEQFNSTYRVVSVLTVLHQDWLNGKEYKCKVSNKGLPSSIEKTISKAKGQPREPQVCTLPPSQEEMTKNQVSLSCAVKGFYPSDIAVEWESNGQPENNYKTTPPVLDSDGSFFLVSRLTVDKSRWQEGNVFSCSVMHEALHNHYTQKSLSLSLGK
notes: Anti-PD-1 arm (1A7-H2K3 heavy and light chain, IgG4 with KIH) and anti-CD40 arm (6A7-H4K2 scFv joined to IgG4 CH2-CH3 with KIH)
Kd [3]: 9.78 nM | koff [3]: 0.00117 s⁻¹ | kon [3]: 120000 M⁻¹ s⁻¹ | EC50 Value (ug/ml), luminescence of Jurkat-Luc-hCD40 reporter cells in the presence of CHO-K1-hPD1 basal cells [6]: 0.0103 µg/mL | EC50 (read off the curve), luciferase Rlu, Jurkat-Luc-hCD40 reporter cells with CHO-K1-hFcγRIIB basal cells [9]: ~0.05 µg/mL | EC50 Value (ug/ml), luminescence of Jurkat-Luc-hCD40 reporter cells in the presence of CHO-K1-hFcγRIIB basal cells [10]: 0.0543 µg/mL | Kd [8]: 1.75 nM | koff [8]: 0.0005 s⁻¹ | kon [8]: 285000 M⁻¹ s⁻¹ | EC50 (read off the curve), luciferase Rlu, Jurkat-Luc-hCD40 reporter cells with CHO-K1-hPD-1 basal cells [11]: ~0.04 µg/mL | EC50 Value (ug/ml), luminescence of Jurkat-Luc-hPD-1 effector cells co-cultured with CHO-aAPC-hPD-L1 cells [5]: 23.4 µg/mL

B7: PD1-C40-6A7-FV3A (bispecific antibody, human IgG4 S228P, kappa)
heavy: EVQLVESGGGLVQPGGSLRLSCAASGFTFSSYSMSWVRQAPGKRLEWVAHISSGGSSTYYPDTVKGRFTISRDNSKNTLYLQMNSLRAEDTAMYYCTRQFYYGSSFWYFDVWGAGTTVTVSSASTKGPSVFPLAPCSRSTSESTAALGCLVKDYFPEPVTVSWNSGALTSGVHTFPAVLQSSGLYSLSSVVTVPSSSLGTKTYTCNVDHKPSNTKVDKRVESKYGPPCPPCPAPEFLGGPSVFLFPPKPKDTLMISRTPEVTCVVVDVSQEDPEVQFNWYVDGVEVHNAKTKPREEQFNSTYRVVSVLTVLHQDWLNGKEYKCKVSNKGLPSSIEKTISKAKGQPREPQVYTLPPSQEEGGGGSGGGGSDVVMTQSPLSLPVTLGQPASISCRSSQSLLHSNGNTYLHWYQQRPGQSPNHLIYQVSNRFSGVPDRFSGSGSGTDFTLKISRVEAEDVGVYFCSQTTHVPWTFGCGTKVEIKGGGGSGGGGSGGGGSGGGGSQVQLVQSGAEVKKPGASVKLSCKASGYTFISYYIYWVKQAPGQCLEWIGGINPRNGGTNFNEKFKSRATLTVDTSISTAYMELSRLRSEDTAVYYCTRHGNGVYWGQGTTLTVSSGGGGSGGGGSVSLTCLVKGFYPSDIAVEWESNGQPENNYKTTPPVLDSDGSFFLYSRLTVDKSRWQEGNVFSCSVMHEALHNHYTQKSLSLSPGK
light: DNVLTQSPATLSVSPGERATLSCKASQSVDFDGDSYMNWYQQKPGQPPRLLIYAASNLESGIPARFSGSGSGTDFTLTISSVEPEDFATYYCQQSNEDPPTFGGGTKVEIKRTVAAPSVFIFPPSDEQLKSGTASVVCLLNNFYPREAKVQWKVDNALQSGNSQESVTEQDSKDSTYSLSSTLTLSKADYEKHKVYACEVTHQGLSSPVTKSFNRGEC
notes: Anti-CD40 scFv (6A7) fused into each heavy chain CH3 domain at positions 358-362 (EU numbering) of the anti-PD-1 antibody 1A7-H2K3-IgG4
EC50 (read off the curve), luciferase Rlu, Jurkat-Luc-hCD40 reporter cells with CHO-K1-hPD-1 basal cells [11]: ~0.03 µg/mL | Kd [4]: 1680 nM | Kd [12]: 0.419 nM | koff [12]: 0.000255 s⁻¹ | kon [12]: 608000 M⁻¹ s⁻¹

B9: 1A7-selicrelumab-FV3A-IgG4 (bispecific antibody)
heavy: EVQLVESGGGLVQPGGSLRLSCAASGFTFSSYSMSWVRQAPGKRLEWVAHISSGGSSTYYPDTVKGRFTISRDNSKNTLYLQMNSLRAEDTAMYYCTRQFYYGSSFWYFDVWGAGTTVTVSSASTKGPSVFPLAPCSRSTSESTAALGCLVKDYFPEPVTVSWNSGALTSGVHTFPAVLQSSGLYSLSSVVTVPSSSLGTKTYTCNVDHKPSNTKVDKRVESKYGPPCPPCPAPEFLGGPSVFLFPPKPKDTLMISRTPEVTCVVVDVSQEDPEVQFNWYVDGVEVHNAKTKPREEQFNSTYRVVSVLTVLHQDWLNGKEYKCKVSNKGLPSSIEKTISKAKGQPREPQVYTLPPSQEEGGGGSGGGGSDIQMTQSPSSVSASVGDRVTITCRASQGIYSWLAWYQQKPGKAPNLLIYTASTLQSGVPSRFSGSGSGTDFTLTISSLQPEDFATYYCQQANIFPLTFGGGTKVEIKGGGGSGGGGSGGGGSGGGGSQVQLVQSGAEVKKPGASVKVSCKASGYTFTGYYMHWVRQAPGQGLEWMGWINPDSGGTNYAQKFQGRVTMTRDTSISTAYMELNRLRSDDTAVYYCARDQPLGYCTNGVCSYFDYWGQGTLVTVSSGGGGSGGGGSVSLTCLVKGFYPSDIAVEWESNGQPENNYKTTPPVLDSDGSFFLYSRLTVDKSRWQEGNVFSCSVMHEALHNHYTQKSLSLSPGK
light: DNVLTQSPATLSVSPGERATLSCKASQSVDFDGDSYMNWYQQKPGQPPRLLIYAASNLESGIPARFSGSGSGTDFTLTISSVEPEDFATYYCQQSNEDPPTFGGGTKVEIKRTVAAPSVFIFPPSDEQLKSGTASVVCLLNNFYPREAKVQWKVDNALQSGNSQESVTEQDSKDSTYSLSSTLTLSKADYEKHKVYACEVTHQGLSSPVTKSFNRGEC
EC50 (read off the curve) [1]: ~0.3 µg/mL
